Key:
[1] = target: T1, flag-tagged wild-type Gli1 (human, UniProt P08151 1-1106); assay: IP-Western, flag-tagged Gli1WT transfected into BE3 cells
T1 construct: Transiently expressed in BE3 cells without TNFα stimulation; also called flag-Gli1WT; flag-Gli1; not shown: flag tag from vector p3flag-CMV10
T1 sequence (looked up): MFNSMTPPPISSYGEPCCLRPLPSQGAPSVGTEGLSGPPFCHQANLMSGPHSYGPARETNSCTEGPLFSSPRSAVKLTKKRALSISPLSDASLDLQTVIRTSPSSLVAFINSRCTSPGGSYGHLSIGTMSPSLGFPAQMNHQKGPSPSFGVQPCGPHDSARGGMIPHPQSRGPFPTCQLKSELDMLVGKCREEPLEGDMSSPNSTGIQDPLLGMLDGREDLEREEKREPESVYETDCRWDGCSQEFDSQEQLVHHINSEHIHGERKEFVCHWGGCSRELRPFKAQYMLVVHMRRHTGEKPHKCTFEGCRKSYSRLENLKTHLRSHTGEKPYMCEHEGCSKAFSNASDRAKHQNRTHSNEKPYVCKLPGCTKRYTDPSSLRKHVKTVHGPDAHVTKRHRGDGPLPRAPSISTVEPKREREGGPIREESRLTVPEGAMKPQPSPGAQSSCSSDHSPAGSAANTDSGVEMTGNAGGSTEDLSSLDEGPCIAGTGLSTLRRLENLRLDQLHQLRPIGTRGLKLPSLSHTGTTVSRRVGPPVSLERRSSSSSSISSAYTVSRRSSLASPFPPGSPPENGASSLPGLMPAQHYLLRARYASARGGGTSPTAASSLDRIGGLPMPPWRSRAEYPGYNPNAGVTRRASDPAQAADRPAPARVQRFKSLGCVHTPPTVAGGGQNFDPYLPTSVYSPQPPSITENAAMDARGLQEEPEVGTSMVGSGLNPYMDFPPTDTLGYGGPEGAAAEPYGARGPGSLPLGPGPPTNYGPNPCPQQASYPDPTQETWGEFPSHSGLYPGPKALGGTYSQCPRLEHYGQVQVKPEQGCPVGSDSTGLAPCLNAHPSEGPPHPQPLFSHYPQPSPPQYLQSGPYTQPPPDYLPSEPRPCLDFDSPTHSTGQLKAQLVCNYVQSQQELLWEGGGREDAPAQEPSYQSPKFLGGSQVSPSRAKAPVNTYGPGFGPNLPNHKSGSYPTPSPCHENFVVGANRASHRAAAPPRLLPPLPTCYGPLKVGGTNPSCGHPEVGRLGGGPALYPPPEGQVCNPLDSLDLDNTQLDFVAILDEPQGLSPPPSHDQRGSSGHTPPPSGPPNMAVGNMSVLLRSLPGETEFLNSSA

[2] = target: T2, flag-tagged Gli1S84A (human, UniProt P08151 1-1106); assay: IP-Western, flag-tagged Gli1S84A transfected into BE3 cells
T2 construct: also called flag-Gli1S84A; not shown: flag tag from vector p3flag-CMV10
T2 sequence (looked up): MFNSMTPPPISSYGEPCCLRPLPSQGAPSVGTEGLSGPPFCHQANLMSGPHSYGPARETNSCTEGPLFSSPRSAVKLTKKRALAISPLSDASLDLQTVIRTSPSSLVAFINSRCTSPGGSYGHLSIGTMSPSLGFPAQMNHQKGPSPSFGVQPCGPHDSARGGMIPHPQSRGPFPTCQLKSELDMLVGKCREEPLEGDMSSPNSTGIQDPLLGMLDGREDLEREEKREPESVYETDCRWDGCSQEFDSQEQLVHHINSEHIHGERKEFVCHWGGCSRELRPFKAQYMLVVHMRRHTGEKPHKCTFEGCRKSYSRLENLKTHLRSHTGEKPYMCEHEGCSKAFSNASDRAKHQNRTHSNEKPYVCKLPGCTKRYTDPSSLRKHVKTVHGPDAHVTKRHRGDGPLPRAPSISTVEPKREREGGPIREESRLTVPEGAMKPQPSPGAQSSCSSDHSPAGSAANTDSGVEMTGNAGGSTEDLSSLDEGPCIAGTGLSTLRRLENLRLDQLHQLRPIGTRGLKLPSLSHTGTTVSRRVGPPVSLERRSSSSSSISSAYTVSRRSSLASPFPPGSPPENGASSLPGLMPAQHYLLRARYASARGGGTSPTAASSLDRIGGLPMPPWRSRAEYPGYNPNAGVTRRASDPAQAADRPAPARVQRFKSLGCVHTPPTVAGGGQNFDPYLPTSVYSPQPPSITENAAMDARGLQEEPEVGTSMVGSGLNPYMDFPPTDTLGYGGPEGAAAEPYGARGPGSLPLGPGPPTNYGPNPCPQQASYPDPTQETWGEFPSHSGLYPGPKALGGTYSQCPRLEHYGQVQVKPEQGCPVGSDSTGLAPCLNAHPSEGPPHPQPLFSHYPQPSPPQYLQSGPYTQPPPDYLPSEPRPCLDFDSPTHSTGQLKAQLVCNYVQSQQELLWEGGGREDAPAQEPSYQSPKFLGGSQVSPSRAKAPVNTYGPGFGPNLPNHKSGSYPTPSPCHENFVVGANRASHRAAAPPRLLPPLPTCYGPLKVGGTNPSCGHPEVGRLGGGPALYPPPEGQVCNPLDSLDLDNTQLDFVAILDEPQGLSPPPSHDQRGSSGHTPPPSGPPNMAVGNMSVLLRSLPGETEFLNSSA
Experimental: FIGS. 13A-13K. related to FIG. 5. […] FIG. 13A. Luciferase assay of Gli reporter in the stable clones treated by TNFα alone (5 ng/mL) or TNFα plus rapamycin (100 nM). Error bars represent SD (n=3). FIG. 13B. Gli1 immunofluorescence staining in several BE3 stable clones with TNFα treatment. Scale bar=100 μm for original picture and 25 μm for inset. FIG. 13C. The regulation of p-Gli1 by TNFα alone or together with rapamycin (10, 50, and 100 nM) in the BE3 stable clone. FIG. 13D. MTT assay of the various Gli1 stable clones. All cells were counted, and then 3,000 cells were seeded in each well of a 96-well plate. Error bars represent SD (n=3). FIG. 13E. Soft-agar assay of the various Gli1 stable clones. All cells were counted, and then 1,000 cells were mixed with agarose for each well of a 24-well plate. Left, representative microscopic images. Right, quantitation of colony formation. Error bars represent SD (n=3). FIG. 13F. Invasion assay of the various Gli1 stable clones. All cells were counted, and then 1,000 cells were seeded on matrigel in transwells. Left, representative microscopic images from the bottom side of transwell membranes. Right, quantitation of invasive cells. Error bars represent SD (n=3). FIGS. 13G-13I. The assays of MTT (G), soft agar (H), and invasion (I) using the BE3 stable clones treated with TNFα.

B1: SuFu (other, human, UniProt Q9UMX1 1-484, looked up)
chain: MAELRPSGAPGPTAPPAPGPTAPPAFASLFPPGLHAIYGECRRLYPDQPNPLQVTAIVKYWLGGPDPLDYVSMYRNVGSPSANIPEHWHYISFGLSDLYGDNRVHEFTGTDGPSGFGFELTFRLKRETGESAPPTWPAELMQGLARYVFQSENTFCSGDHVSWHSPLDNSESRIQHMLLTEDPQMQPVQTPFGVVTFLQIVGVCTEELHSAQQWNGQGILELLRTVPIAGGPWLITDMRRGETIFEIDPHLQERVDKGIETDGSNLSGVSAKCAWDDLSRPPEDDEDSRSICIGTQPRRLSGKDTEQIRETLRRGLEINSKPVLPPINPQRQNGLAHDRAPSRKDSLESDSSTAIIPHELIRTRQLESVHLKFNQESGALIPLCLRGRLLHGRHFTYKSITGDMAITFVSTGVEGAFATEEHPYAAHGPWLQILLTEEFVEKMLEDLEDLTSPEEFKLPKEYSWPEKKLKVSILPDVVFDSPLH
notes: also called suppressor of fused
B1: binds [1]; binds [2].

— patent US20150017651A1 (University of Texas, published 2015)
